Measurements taken from article PMC6856630.

Experiments:
Experiment in all cases: BLI; Octet RED384; biotinylated neurexin LNS2 on streptavidin tips, Nxph in solution; 25°C, PBS pH 7.4, 50 nM TCEP, 1% BSA; global fit, double reference subtraction
[1] = target: Nrxn1 LNS2^SS2AB+ (I401Q), AviTag-His, biotinylated (BLI) (mouse)
[2] = target: Nrxn3 LNS2^SS2−, AviTag-His, biotinylated (BLI) (mouse)
[3] = target: Nrxn1 LNS2^SS2AB+, AviTag-His, biotinylated (BLI) (mouse)
[4] = target: Nrxn3 LNS2^SS2− (I401Q), AviTag-His, biotinylated (BLI) (mouse)
[5] = target: Nrxn2 LNS2^SS2− (I401Q), AviTag-His, biotinylated (BLI) (mouse)
[6] = target: Nrxn2 LNS2^SS2−, AviTag-His, biotinylated (BLI) (mouse)

Sequence of Nxph3-2XFLAG-His (rat neurexophilin-3, 50-252) (Q9Z2N5 50-252): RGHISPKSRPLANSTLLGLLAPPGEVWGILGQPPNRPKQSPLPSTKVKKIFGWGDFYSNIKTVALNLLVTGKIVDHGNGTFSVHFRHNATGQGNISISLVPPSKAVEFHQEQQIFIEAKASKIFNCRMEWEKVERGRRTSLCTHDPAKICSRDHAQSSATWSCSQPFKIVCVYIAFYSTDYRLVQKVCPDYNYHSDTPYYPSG
Sequence of Nxph1-2XFLAG-His (mature rat neurexophilin-1, 118-271, glycosylated) (Q63366 118-271): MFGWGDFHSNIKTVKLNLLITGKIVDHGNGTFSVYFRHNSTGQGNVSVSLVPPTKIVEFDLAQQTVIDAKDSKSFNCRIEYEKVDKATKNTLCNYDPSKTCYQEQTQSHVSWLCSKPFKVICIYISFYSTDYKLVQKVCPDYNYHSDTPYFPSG

Substance: Nxph1-2XFLAG-His (mature rat neurexophilin-1, 118-271, glycosylated) (from UniProt Q63366 118-271) (ligand)
- Kd [1]: 0.499 µM
- koff [1]: 0.00034 s⁻¹
- kon [1]: 674 M⁻¹ s⁻¹
- Kd [2]: 0.207 µM
- koff [2]: 9.2e-05 s⁻¹
- kon [2]: 444 M⁻¹ s⁻¹
- Kd [3]: 0.0433 µM
- koff [3]: 9.4e-05 s⁻¹
- kon [3]: 2170 M⁻¹ s⁻¹
- Kd [4]: 1940 µM
- koff [4]: 0.012 s⁻¹
- kon [4]: 10.5 M⁻¹ s⁻¹
- Kd [5]: 39.3 µM
- koff [5]: 0.0025 s⁻¹
- kon [5]: 381 M⁻¹ s⁻¹
- Kd [6]: 0.124 µM
- koff [6]: 6.9e-05 s⁻¹
- kon [6]: 554 M⁻¹ s⁻¹

Substance: Nxph3-2XFLAG-His (rat neurexophilin-3, 50-252) (from UniProt Q9Z2N5 50-252) (ligand)
- Kd [2]: 0.177 µM
- koff [2]: 3.1e-05 s⁻¹
- kon [2]: 178 M⁻¹ s⁻¹
- Kd [4]: 3.5 µM
- koff [4]: 0.00053 s⁻¹
- kon [4]: 153 M⁻¹ s⁻¹
- Kd [5]: 1.31 µM
- koff [5]: 0.00044 s⁻¹
- kon [5]: 350 M⁻¹ s⁻¹
- Kd [6]: 0.212 µM
- koff [6]: 6.7e-05 s⁻¹
- kon [6]: 302 M⁻¹ s⁻¹
